Data set [1] addresses T1, METTL7A (TMT1A1; N-GST-METTL7A) (Homo sapiens, UniProt Q9H8H3).
T1 sequence (Q9H8H3 1-244): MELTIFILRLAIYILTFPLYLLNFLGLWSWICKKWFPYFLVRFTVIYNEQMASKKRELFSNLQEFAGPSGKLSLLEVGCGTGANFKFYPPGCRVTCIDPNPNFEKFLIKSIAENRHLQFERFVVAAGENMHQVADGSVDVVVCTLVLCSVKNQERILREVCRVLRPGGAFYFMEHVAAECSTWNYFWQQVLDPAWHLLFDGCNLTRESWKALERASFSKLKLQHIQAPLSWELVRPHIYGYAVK
Kind of data set: TSL S-methylation, TMSL formation by LC-MS/MS, single time-point. The data set is classed as biochemical.

The target in data set [2] is T1, METTL7A (TMT1A1; N-GST-METTL7A). Described as above. The format is biochemical. This is another data set of the same source.
Substrate in data set [3]: C[C@]12CCC(=O)C=C1C[C@@H](S)[C@@H]1[C@@H]2CC[C@@]2(C)[C@H]1CC[C@@]21CCC(=O)O1
Kind of data set: purified protein. The following applies: 100 µM SAM, DMPG, pH 7.0, 37 °C.

Substrate in data set [4]: C[S+](CC[C@H](N)C(=O)O)C[C@H]1O[C@@H](n2cnc3c(N)ncnc32)[C@H](O)[C@@H]1O
The data set is described as follows: purified protein. The note with it: 250 µM TSL (saturating), DMPG, pH 7.0, 37 °C, varied: cofactor.

On to `Nc1ncnc2c1ncn2[C@@H]1O[C@H](CSCC[C@H](N)C(=O)O)[C@@H](O)[C@H]1O` [SAH], for which, in data set [1], the inhibition constant (Ki) was determined as 53.9 µM.

With `CC(N)c1cccc(Cl)c1Cl` (stereo not drawn) [DCMB, 2,3-dichloro-α-methylbenzylamine], the IC50 in data set [2] was 1170 nM.

B1: METTL7B (TMT1B1; N-GST-METTL7B) (Homo sapiens) (protein)
chain: MDILVPLLQLLVLLLTLPLHLMALLGCWQPLCKSYFPYLMAVLTPKSNRKMESKKRELFSQIKGLTGASGKVALLELGCGTGANFQFYPPGCRVTCLDPNPHFEKFLTKSMAENRHLQYERFVVAPGEDMRQLADGSMDVVVCTLVLCSVQSPRKVLQEVRRVLRPGGVLFFWEHVAEPYGSWAFMWQQVFEPTWKHIGDGCCLTRETWKDLENAQFSEIQMERQPPPLKWLPVGPHIMGKAVK
As to B1, the Km in data set [3] is listed as 32.5 µM.

B2: METTL7A (TMT1A1; N-GST-METTL7A) (Homo sapiens) (protein)
chain: MELTIFILRLAIYILTFPLYLLNFLGLWSWICKKWFPYFLVRFTVIYNEQMASKKRELFSNLQEFAGPSGKLSLLEVGCGTGANFKFYPPGCRVTCIDPNPNFEKFLIKSIAENRHLQFERFVVAAGENMHQVADGSVDVVVCTLVLCSVKNQERILREVCRVLRPGGAFYFMEHVAAECSTWNYFWQQVLDPAWHLLFDGCNLTRESWKALERASFSKLKLQHIQAPLSWELVRPHIYGYAVK
For B2, the Km in data set [3] turned out to be 39.4 µM; in data set [4], 53.73 µM.

These data come from paper doi:10.1101/2022.10.12.511968v1 (biorxiv, 2022).
